Series [1] has as its system ZFN 9666 (GR exon 3 four-finger ZFP-FokI) (synthetic). Description: cell_activity. The following applies: paired with 9674; Ad5/F35 moi 100, CD8+ T-cells after dexamethasone selection; also Cel I cleavage in K562 (FIG. 3A).
Series [2] deals with ZFN 9674 (GR exon 3 four-finger ZFP-FokI) (synthetic). The series can be described thus: cell_activity. Particulars: paired with 9666; Ad5/F35 moi 100, CD8+ T-cells after dexamethasone selection; also Cel I cleavage in K562 (FIG. 3A).

In turn, “CAACAGGACCAC (double strand) [GR exon 3 sense target (nt 1370-1381)]” came in with an activity (% GR alleles mutated) in series [1] of 70. On to “GTTGAGGAGCTG (double strand) [GR exon 3 antisense target (nt 1353-1364)]”, for which the activity (% GR alleles mutated) in series [2] worked out at 70.

These data come from US20080188000.
